T1: mouse procaspase-14
T1 chain: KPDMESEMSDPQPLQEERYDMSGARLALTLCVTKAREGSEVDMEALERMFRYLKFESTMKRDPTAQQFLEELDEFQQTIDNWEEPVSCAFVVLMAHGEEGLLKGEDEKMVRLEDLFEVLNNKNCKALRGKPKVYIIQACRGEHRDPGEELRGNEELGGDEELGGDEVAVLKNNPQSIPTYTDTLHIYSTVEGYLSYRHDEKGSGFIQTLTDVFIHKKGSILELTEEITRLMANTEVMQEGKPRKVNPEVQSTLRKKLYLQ

T2: mouse procaspase-14
T2 sequence: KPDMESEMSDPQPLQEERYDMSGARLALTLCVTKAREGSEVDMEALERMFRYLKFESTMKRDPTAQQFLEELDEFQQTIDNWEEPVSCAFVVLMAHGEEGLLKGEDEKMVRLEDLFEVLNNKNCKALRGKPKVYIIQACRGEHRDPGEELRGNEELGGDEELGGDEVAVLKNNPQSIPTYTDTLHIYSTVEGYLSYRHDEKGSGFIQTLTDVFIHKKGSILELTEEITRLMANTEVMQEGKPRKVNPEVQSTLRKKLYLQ

B1: cytochrome c-activated caspase-7 in S-100 extract of human embryonic kidney 293 cells (protein)
chain: AKPDRSSFVPSLFSKKKKNVTMRSIKTTRDRVPTYQYNMNFEKLGKCIIINNKNFDKVTGMGVRNGTDKDAEALFKCFRSLGFDVIVYNDCSCAKMQDLLKKASEEDHTNAACFACILLSHGEENVIYGKDGVTPIKDLTAHFRGDRCKTLLEKPKLFFIQACRGTELDDGIQADSGPINDTDANPRYKIPVEADFLFAYSTVPGYYSWRSPGRGSWFVQALCSILEEHGKDLEIMQILTRVNDRVARHFESQSDDPHFHEKKQIPCVVSMLTKELYFSQ
B2: cytochrome c-activated caspase-6 in S-100 extract of human embryonic kidney 293 cells (protein)
chain: AFYKREMFDPAEKYKMDHRRRGIALIFNHERFFWHLTLPERRGTCADRDNLTRRFSDLGFEVKCFNDLKAEELLLKIHEVSTVSHADADCFVCVFLSHGEGNHIYAYDAKIEIQTLTGLFKGDKCHSLVGKPKIFIIQACRGNQHDVPVIPLDVVDNQTEKLDTNITEVDAASVYTLPAGADFLMCYSVAEGYYSHRETVNGSWYIQDLCEMLGKYGSSLEFTELLTLVNRKVSQRRVDFCKDPSAIGKKQVPCFASMLTKKLHFFPKSN
B3: cytochrome c-activated caspase-9 in S-100 extract of human embryonic kidney 293 cells (protein)
chain: MDEADRRLLRRCRLRLVEELQVDQLWDALLSRELFRPHMIEDIQRAGSGSRRDQARQLIIDLETRGSQALPLFISCLEDTGQDMLASFLRTNRQAAKLSKPTLENLTPVVLRPEIRKPEVLRPETPRPVDIGSGGFGDVGALESLRGNADLAYILSMEPCGHCLIINNVNFCRESGLRTRTGSNIDCEKLRRRFSSLHFMVEVKGDLTAKKMVLALLELAQQDHGALDCCVVVILSHGCQASHLQFPGAVYGTDGCPVSVEKIVNIFNGTSCPSLGGKPKLFFIQACGGEQKDHGFEVASTSPEDESPGSNPEPDATPFQEGLRTFDQLDAISSLPTPSDIFVSYSTFPGFVSWRDPKSGSWYVETLDDIFEQWAHSEDLQSLLLRVANAVSVKGIYKQMPGCFNFLRKKLFFKTS
B4: cytochrome c-activated caspase-3 in S-100 extract of human embryonic kidney 293 cells (protein)
chain: SGISLDNSYKMDYPEMGLCIIINNKNFHKSTGMTSRSGTDVDAANLRETFRNLKYEVRNKNDLTREEIVELMRDVSKEDHSKRSSFVCVLLSHGEEGIIFGTNGPVDLKKITNFFRGDRCRSLTGKPKLFIIQACRGTELDCGIETDSGVDDDMACHKIPVEADFLYAYSTAPGYYSWRNSKDGSWFIQSLCAMLKQYADKLEFMHILTRVNRKVATEFESFSFDATFHAKKQIPCIVSMLTKELYFYH

The target of one series is T1, mouse procaspase-14.
Take B1: the “cleavage/activation of 35S labeled procaspase-14 in S-100 extracts activated by cytochrome c and dATP, SDS-PAGE and autoradiography” value (shortened to “cleavage/activation”) was “no cleavage/activation of ^35S labeled procaspase-14 was observed in S-100 extracts activated by cytochrome c and dATP”.

For the molecule B2, the “cleavage/activation” value was “no cleavage/activation of ^35S labeled procaspase-14 was observed in S-100 extracts activated by cytochrome c and dATP”.

With B3, the “cleavage/activation” value was “no cleavage/activation of ^35S labeled procaspase-14 was observed in S-100 extracts activated by cytochrome c and dATP”.

For B4, the “cleavage/activation” value is “no cleavage/activation of ^35S labeled procaspase-14 was observed in S-100 extracts activated by cytochrome c and dATP”.

For a further series, the system named is T2, mouse procaspase-14.
Take purified recombinant caspase-14: the “processing (cleavage) of 35S labeled procaspase-14, SDS-PAGE and autoradiography” value (“processing (cleavage)” below) is recorded as “Some processing was also observed with recombinant caspase-14 itself”.

Turning to purified recombinant caspase-10, the “processing (cleavage)” value is “a significant amount of processing was observed when procaspase-14 was incubated with Granzyme B, caspase-10 and caspase-8, but not with other caspases”.

As for purified Granzyme B, the “processing (cleavage)” value is “a significant amount of processing was observed when procaspase-14 was incubated with Granzyme B, caspase-10 and caspase-8, but not with other caspases”.

As to purified recombinant caspase-8, the “processing (cleavage)” value was “a significant amount of processing was observed when procaspase-14 was incubated with Granzyme B, caspase-10 and caspase-8, but not with other caspases”.

Values taken from patent publication US20020146804.
